Laboratory results published in patent US20130323786A1.

Tests used:
[1] = molecular target: human Fc receptor CD16-GST fusion protein (human) (UniProt P08637); assay: ALPHA competition assay: test antibody competes with biotinylated wild-type IgG1 (m7) for the receptor-GST fusion; panel title huCD16a V
[2] = molecular target: human Fc receptor CD64-GST fusion protein (human) (UniProt P12314); assay: ALPHA competition assay: test antibody competes with biotinylated wild-type IgG1 (m7) for the receptor-GST fusion; panel title huCD64 [continued) D]
LINGO-1 (human) = LINGO-1 (human) (UniProt Q96FE5); assay: Cell bridging assay; fit of an essentially flat control curve (see non_binding); the axis on the sheet has no unit, µg/mL is from paragraph 391

human Fc receptor CD64-GST fusion protein (human), sequence (P12314 16-292 limits assumed): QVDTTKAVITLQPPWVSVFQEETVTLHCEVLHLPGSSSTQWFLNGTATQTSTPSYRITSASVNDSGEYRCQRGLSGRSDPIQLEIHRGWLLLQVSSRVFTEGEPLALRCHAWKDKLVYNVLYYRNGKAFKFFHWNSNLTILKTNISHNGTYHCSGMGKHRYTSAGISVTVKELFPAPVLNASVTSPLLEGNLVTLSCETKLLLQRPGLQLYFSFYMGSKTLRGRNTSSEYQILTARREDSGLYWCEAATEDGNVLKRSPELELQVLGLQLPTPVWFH
human Fc receptor CD16-GST fusion protein (human), sequence (P08637 17-208): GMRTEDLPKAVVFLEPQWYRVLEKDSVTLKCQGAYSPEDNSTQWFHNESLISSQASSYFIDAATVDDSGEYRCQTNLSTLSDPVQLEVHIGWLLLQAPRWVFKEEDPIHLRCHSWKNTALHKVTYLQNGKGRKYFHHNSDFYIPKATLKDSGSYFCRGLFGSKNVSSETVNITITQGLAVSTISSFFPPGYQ

| IC50 [1] [µg/mL] | IC50 [2] [µg/mL] | C (midpoint parameter of the printed 4-parameter fit) (LINGO-1 (human)) [µg/mL] | Substance |
| --- | --- | --- | --- |
| 62 | 25 |  | agly 5c8 T299A (JF) (antibody) |
|  |  | 3.55 | huIgG1 (antibody) |
